Assay results published in US20260035450A1.

Columns and labels:
[1] = biological target: T1, recombinant human ANGPTL3 (rhANGPTL3) (SEQ ID NO:1) (human) (UniProt Q9Y5C1); experiment: cell-based or functional assay
T1 sequence: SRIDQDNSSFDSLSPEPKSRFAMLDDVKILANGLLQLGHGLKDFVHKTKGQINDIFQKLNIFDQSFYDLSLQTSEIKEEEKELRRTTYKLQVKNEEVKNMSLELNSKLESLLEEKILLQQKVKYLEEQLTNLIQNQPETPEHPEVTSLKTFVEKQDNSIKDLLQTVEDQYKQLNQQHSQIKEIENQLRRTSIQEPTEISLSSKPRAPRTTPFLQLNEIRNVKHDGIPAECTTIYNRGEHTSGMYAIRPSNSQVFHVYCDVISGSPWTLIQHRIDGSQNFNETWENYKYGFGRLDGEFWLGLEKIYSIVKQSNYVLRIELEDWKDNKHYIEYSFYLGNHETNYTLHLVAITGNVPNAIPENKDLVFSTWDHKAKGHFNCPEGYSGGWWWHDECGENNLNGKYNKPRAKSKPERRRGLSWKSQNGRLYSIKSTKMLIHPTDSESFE

[2] = biological target: T1, recombinant human ANGPTL3 (rhANGPTL3) (SEQ ID NO:1) (human); experiment: SE-UPLC of antibody mixed with rhANGPTL3 (1:3 molar ratio), run buffer pH 6.0
[3] = biological target: T1, recombinant human ANGPTL3 (rhANGPTL3) (SEQ ID NO:1) (human); experiment: SE-UPLC of antibody mixed with rhANGPTL3 (1:3 molar ratio), run buffer pH 7.4
[4] = biological target: T1, recombinant human ANGPTL3 (rhANGPTL3) (SEQ ID NO:1) (human); experiment: SE-UPLC of antibody mixed with rhANGPTL3 (1:3 molar ratio); change of mean retention time from pH 7.4 to 6.0

evinacumab sequence identical analogue (SIA) (antibody), sequence (VH): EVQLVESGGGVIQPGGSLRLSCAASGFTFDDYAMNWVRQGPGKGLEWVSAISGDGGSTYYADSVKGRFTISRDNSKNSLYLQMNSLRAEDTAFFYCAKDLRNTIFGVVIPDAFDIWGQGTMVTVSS
evinacumab sequence identical analogue (SIA) (antibody), sequence (VL): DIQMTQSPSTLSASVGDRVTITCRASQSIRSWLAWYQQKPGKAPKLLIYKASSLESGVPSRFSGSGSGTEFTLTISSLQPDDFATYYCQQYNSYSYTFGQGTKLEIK

Average relative IC50 (inhibition of rhANGPTL3-mediated LPL inhibition) (relative to evinacumab SIA) [1]: 1
MRT (mean retention time of immune complex), pH6.0 [2]: 3.82 min
RT (retention time of immune complex), pH6.0 [2]: 3.83 min
MRT (mean retention time of immune complex), pH7.4 [3]: 3.72 min
RT (retention time of immune complex), pH7.4 [3]: 3.72 min
MRT shift, pH7.4 -> pH6.0 [4]: 0.1 min
Substance: evinacumab sequence identical analogue (SIA) (antibody)
